The results in this text go back to publication PMC6212790, “How bacterial xenogeneic silencer rok distinguishes foreign from self DNA in its resident genome” (Nucleic Acids Research, 2018).

Data set [1] deals with the molecule itself. Description: SEC; gel filtration on a GE HiLoad 16/600 Superdex 75 preparation grade column; elution volumes compared with cytochrome C (12.4 kD) and the void volume. A general note: In gel filtration, larger molecules generally elute earlier.
The target of data set [2] is T1, Rok-C102-185 (Bacillus subtilis subsp. subtilis str. …, UniProt O34857 102-185).
T1 sequence: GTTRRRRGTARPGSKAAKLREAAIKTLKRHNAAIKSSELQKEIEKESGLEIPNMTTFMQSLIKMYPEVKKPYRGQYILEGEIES
In words: NMR HSQC; ITC: sodium phosphate buffer, 200 mM NaCl, pH 6, 277 K, 50 uM protein in cell, 750 uM Seq1 DNA; NMR samples: 50 mM sodium phosphate, 50 mM NaCl, pH 6.0. The settings on record: protein: recombinant, tags: C-terminal His6, blunt.

Another data set addresses T2, Rok-C97-191 (Bacillus subtilis subsp. subtilis str. …, UniProt O34857 97-191).
T2 sequence: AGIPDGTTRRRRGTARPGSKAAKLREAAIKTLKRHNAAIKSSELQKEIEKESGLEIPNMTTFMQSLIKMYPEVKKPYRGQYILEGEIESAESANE
In words: NMR titration; ITC: sodium phosphate buffer, 200 mM NaCl, pH 6, 277 K, 50 uM protein in cell, 750 uM Seq1 DNA; NMR samples: 50 mM sodium phosphate, 50 mM NaCl, pH 6.0. The settings on record: protein: recombinant; tags: C-terminal His6; blunt, self-complementary 12 bp.

Data set [3] addresses T3, Rok-C114-185 T156A (Bacillus subtilis subsp. subtilis str. …, UniProt O34857 114-185, T156A).
T3 sequence: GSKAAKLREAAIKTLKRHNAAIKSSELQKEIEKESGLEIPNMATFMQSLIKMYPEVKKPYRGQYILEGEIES
In words: ITC; ITC: sodium phosphate buffer, 200 mM NaCl, pH 6, 277 K, 50 uM protein in cell, 750 uM Seq1 DNA; NMR samples: 50 mM sodium phosphate, 50 mM NaCl, pH 6.0. The settings on record: protein: recombinant; tags: C-terminal His6; blunt, self-complementary 18 bp. In general terms: ITC needs no label: the signal is the heat of the interaction.

The target in data set [4] is T4, Rok-C114-185 R174A (Bacillus subtilis subsp. subtilis str. …, UniProt O34857 114-185, R174A).
T4 sequence: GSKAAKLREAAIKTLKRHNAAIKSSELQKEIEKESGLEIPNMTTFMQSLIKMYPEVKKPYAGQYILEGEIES
The description is as above. The settings on record: protein: recombinant; tags: C-terminal His6; blunt, self-complementary 18 bp.

Another data set deals with T5, Rok-C114-185 K164A (Bacillus subtilis subsp. subtilis str. …, UniProt O34857 114-185, K164A).
T5 sequence: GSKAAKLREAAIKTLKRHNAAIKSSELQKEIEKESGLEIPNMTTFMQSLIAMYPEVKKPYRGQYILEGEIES
Description: ITC; ITC: sodium phosphate buffer, 200 mM NaCl, pH 6, 277 K, 50 uM protein in cell titrated with 750 uM Seq1 DNA; PBM: buffer not stated. The settings on record: protein: recombinant; tags: C-terminal His6; blunt, self-complementary 18 bp.

A further data set concerns the target T6, Rok-C114-185 K171A (Bacillus subtilis subsp. subtilis str. …, UniProt O34857 114-185, K171A).
T6 sequence: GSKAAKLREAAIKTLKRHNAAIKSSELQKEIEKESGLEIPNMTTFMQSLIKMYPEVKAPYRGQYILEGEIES
The description is as above. The settings on record: protein: recombinant; tags: C-terminal His6; blunt, self-complementary 18 bp.

For data set [5], the target named is T3, Rok-C114-185 T156A. The data set is described as above. The settings on record: protein: recombinant; tags: C-terminal His6; blunt, self-complementary 18 bp.
In a further data set the target is T7, Rok-C114-185 K116A (Bacillus subtilis subsp. subtilis str. …, UniProt O34857 114-185, K116A).
T7 sequence: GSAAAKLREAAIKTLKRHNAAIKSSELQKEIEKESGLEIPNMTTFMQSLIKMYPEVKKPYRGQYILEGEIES
The data set is described as above. The settings on record: protein: recombinant; tags: C-terminal His6; blunt, self-complementary 18 bp.

Another data set addresses T8, Rok-C114-185 T157A (Bacillus subtilis subsp. subtilis str. …, UniProt O34857 114-185, T157A).
T8 sequence: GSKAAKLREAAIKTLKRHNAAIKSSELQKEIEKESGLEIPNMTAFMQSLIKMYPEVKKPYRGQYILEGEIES
The data set is described as above. The settings on record: protein: recombinant; tags: C-terminal His6; blunt, self-complementary 18 bp.

The target of another data set is T9, Rok-C114-185 K136A (Bacillus subtilis subsp. subtilis str. …, UniProt O34857 114-185, K136A).
T9 sequence: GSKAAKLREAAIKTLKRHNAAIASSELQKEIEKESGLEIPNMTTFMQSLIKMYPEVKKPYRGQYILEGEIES
The description is as above. The settings on record: protein: recombinant; tags: C-terminal His6; blunt, self-complementary 18 bp.

Data set [6] concerns the target T1, Rok-C102-185. The description is as above. The settings on record: protein: recombinant; tags: C-terminal His6; blunt, self-complementary 18 bp.
Data set [7] has as its target T4, Rok-C114-185 R174A. Described as above. The settings on record: protein: recombinant; tags: C-terminal His6; blunt, self-complementary 18 bp.
Another data set addresses T10, Rok-C114-185 (Bacillus subtilis subsp. subtilis str. …, UniProt O34857 114-185).
T10 sequence: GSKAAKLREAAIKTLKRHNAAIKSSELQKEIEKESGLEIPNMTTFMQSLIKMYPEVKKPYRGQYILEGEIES
The data set is described as above. The settings on record: protein: recombinant; tags: C-terminal His6; blunt, self-complementary 18 bp.

B1: Rok (full-length Rok protein, Bacillus subtilis subsp. subtilis str. 168) (natural protein, B. subtilis subsp. subtilis str. 168, UniProt O34857 1-191, looked up)
chain: MFNEREALRLRLEQLNEAEVKVIREYQIERDKIYAKLRELDRNGSPSEIKKDFRSEKKPDSLPVLAELAAQEIRSYQPQSQQQSVQPQLQSISSLPAGIPDGTTRRRRGTARPGSKAAKLREAAIKTLKRHNAAIKSSELQKEIEKESGLEIPNMTTFMQSLIKMYPEVKKPYRGQYILEGEIESAESANE
notes: Rok, xenogeneic silencer of Bacillus subtilis subsp. subtilis str; cloned into pET-21a(+) NdeI/XhoI; size of the higher order oligomer not determined; source: E. coli Rosetta (DE3), purified (Ni-NTA, size exclusion chromatography)
As for B1, the binding result in data set [1] is recorded as “binds”.

B2: 8AT (dsDNA)
DNA 1: CATATATATATATATATG
DNA 2: CATATATATATATATATG
For the molecule B2, in the data set with Rok-C102-185 [2] (self-complementary 18 bp), the binding result is listed as “binds”.

B3: Rok-N^1-95 (N-terminal domain of Rok, residues 1-95) (domain or fragment, B. subtilis subsp. subtilis str. 168, UniProt O34857 1-95, looked up)
chain: MFNEREALRLRLEQLNEAEVKVIREYQIERDKIYAKLRELDRNGSPSEIKKDFRSEKKPDSLPVLAELAAQEIRSYQPQSQQQSVQPQLQSISSL
notes: Rok of Bacillus subtilis subsp. subtilis str; cloned into pET-21a(+) NdeI/XhoI; source: E. coli Rosetta (DE3), purified (Ni-NTA, size exclusion chromatography)
With B3, the binding result in [1] was “binds”.

B4: 3AT (dsDNA)
DNA 1: CGCATATATGCG
DNA 2: CGCATATATGCG
For B4, the binding result with Rok-C97-191 and with Rok-C102-185 [2] (self-complementary 12 bp) was “binds” each time.

B5: Seq1 (dsDNA)
DNA 1: CTAATAACTAGTTATTAG
DNA 2: CTAATAACTAGTTATTAG
For the molecule B5, the Kd with Rok-C114-185 T156A [3] amounted to 42.9 ± 7.1 µM; in the data set with Rok-C114-185 R174A [4], 89 ± 42 µM; with Rok-C114-185 K164A, 30.9 ± 2.9 µM; in the data set with Rok-C114-185 K171A it was 110 ± 35 µM; with Rok-C114-185 T156A [5], 42.9 ± 7.1 µM; with Rok-C114-185 K116A, 42.9 ± 8.1 µM. For the same molecule, the Kd in the data set with Rok-C114-185 T157A worked out at 15 ± 1.9 µM; in the data set with Rok-C114-185 K136A, 39.4 ± 6.4 µM; in the data set with Rok-C102-185 [6] it was 7.9 ± 1.3 µM; in the data set with Rok-C114-185 R174A [7], 89 ± 42 µM; in the data set with Rok-C114-185, 19.7 ± 2.7 µM.

For orientation: Kd means the free concentration of one partner at which half of the binding sites on the other are occupied at equilibrium, for simple one-to-one binding.
